Data published in PMC8810934.

Target: F-actin in live HEK293T cells (human (endogenous in HEK293T)) (UniProt P60709)
Test: FRET or BRET; live HEK293T cells co-transfected with ABD-mEGFP (donor) and Lifeact-mCherry (acceptor, on actin filaments); harvested 24 h after transfection; FRET efficiency from mEGFP fluorescence lifetime (time-correlated single photon counting); n = 3

With “L253P β-III-spectrin ABD fused at the C-terminus to mEGFP (domain or fragment)” the FRET efficiency was 8.4%.
